Test results from US6967092 (dated 2005).

Target: T1, human G-CSF receptor transfected in BaF3 cells (human, UniProt Q99062 25-836)
T1 construct: whole, on cells; also called hG-CSF receptor; BaF3/hG-CSF
Experiment: competition with an agonist-specific radioligand, BaF3 cells transfected with the G-CSF receptor

IC50: 690 pM
B1: G-CSF (ligand)
chain: not shown
